For experiment [1], the target named is T1, B4EC-NT (soluble EphB4 extracellular domain without epitope or purification tags) (human, UniProt P54760 16-539).
T1 construct: extracellular domain; also called EphB4ECnt; B4ECv3NT
T1 sequence (looked up): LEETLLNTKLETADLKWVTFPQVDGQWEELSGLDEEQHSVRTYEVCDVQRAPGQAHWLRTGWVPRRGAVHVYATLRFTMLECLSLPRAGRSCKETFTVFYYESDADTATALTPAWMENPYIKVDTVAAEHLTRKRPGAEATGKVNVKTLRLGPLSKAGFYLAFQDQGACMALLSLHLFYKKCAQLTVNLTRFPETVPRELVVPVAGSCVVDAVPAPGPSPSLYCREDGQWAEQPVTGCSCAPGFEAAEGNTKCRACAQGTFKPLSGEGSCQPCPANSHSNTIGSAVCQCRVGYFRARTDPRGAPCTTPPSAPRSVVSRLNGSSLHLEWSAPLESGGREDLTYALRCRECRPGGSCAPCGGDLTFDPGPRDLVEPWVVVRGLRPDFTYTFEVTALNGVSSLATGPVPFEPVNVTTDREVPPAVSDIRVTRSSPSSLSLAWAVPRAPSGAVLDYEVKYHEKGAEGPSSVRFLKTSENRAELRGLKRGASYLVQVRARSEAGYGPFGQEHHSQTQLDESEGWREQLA
The experiment can be described thus: B2EC-AP binding and competition assays on conditioned media of stable cell lines.

Experiment [2] addresses T2, B4-GCF2 (recombinant soluble EphB4 extracellular domain: globular, Cys-rich and two FNIII domains, C-terminal … (human, UniProt P54760 16-537)).
T2 construct: Expressed in HEK293T, glycosylated
T2 sequence: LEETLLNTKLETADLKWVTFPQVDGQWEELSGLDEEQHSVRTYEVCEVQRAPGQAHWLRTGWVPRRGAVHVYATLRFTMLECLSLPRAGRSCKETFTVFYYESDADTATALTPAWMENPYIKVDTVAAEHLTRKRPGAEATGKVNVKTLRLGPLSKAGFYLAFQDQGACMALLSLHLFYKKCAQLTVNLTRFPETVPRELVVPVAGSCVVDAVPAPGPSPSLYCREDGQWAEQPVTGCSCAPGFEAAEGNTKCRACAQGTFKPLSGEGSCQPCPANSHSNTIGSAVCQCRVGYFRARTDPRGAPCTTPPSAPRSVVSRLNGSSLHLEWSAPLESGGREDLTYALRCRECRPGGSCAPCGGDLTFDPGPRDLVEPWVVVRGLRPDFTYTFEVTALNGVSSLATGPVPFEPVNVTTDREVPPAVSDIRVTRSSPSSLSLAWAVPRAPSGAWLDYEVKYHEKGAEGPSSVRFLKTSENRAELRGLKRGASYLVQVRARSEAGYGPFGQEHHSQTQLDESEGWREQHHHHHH
The experiment can be described thus: Ephrin B2-AP binding to B4 proteins immobilized on Ni resin or nitrocellulose membrane. As to the method: (§1) To confirm ability of the purified recombinant proteins to bind Ephrin B2, they were tested in an in vitro binding assay. As expected, GC, GCF1 and GCF2, but not CF2 are binding the cognate ligand Ephrin B2 as confirmed by interaction between Ephrin B2—alkaline phosphatase (Ephrin B2-AP) fusion protein with the B4 proteins immobilized on Ni²⁺-resin or on nitrocellulose membrane (FIG. 17).
(§2) To test ligand binding properties of the proteins, 10 μl of Ni-NTA-Agarose (Qiagen) were incubated in microcentrifuge tubes with 10-500 ng sample of a B4-ECD protein diluted in 0.5 ml of binding buffer BB (20 mM Tris-HCl, 0.15 M NaCl, 0.1% bovine serum albumin, pH 8). After incubation for 30 min on shaking platform, Ni-NTA beads were washed twice with 1.4 ml of BB, followed by addition of B2-AP fusion protein at concentration of 50 nM. Binding was performed for 30 min on a shaking platform. Tubes were centrifuged and washed once with 1.4 ml of BB. Amount of precipitated AP was measured colorimetrically at 420 nm after application of p-nitrophenyl phosphate (PNPP) and incubation for 5-30 min.

For experiment [3], the target named is T3, B4-CF2 (EphB4 extracellular domain with deleted globular domain: Cys-rich and two FNIII domains, V5 and 6xHis … (human, UniProt P54760 16-537)).
T3 sequence: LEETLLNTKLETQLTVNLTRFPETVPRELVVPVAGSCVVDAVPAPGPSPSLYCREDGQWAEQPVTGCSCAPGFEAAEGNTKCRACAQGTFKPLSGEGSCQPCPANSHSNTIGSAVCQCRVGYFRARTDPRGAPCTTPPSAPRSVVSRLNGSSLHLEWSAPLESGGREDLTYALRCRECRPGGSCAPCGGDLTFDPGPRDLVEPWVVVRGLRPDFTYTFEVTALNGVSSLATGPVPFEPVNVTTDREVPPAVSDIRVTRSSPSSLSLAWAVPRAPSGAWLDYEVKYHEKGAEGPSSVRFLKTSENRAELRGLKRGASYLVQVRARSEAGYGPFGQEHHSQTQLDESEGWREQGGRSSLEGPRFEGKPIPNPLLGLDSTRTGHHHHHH
Described as above. As to the method: as §1, §2

Experiment [4] concerns the target T4, B4-GC (EphB4 globular domain + Cys-rich domain, C-terminal 6xHis) (human, UniProt P54760 16-326).
T4 construct: Printed mature EphB4 part counts 311 residues, the text says 1-312; also called B4EC-GC
T4 sequence: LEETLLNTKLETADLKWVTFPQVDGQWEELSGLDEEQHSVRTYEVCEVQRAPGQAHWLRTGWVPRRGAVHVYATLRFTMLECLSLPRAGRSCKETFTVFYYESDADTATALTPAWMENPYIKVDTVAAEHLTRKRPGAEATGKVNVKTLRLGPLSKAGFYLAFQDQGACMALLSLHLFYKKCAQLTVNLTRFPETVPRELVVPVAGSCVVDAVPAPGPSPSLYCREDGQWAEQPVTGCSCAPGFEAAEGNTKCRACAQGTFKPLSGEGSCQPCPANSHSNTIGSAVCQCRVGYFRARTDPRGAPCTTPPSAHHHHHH
Described as above. As to the method: as §1, §2

In experiment [5] the target is T5, B4ECv3-FC (EphB4 extracellular domain fused to human IgG1 Fc) (human, UniProt P54760 16-539).
T5 construct: extracellular domain; also called B4EC-FC; not shown: Fc portion of human IgG1 (pIG vector)
T5 sequence (looked up): T1 sequence (looked up)
The experiment can be described thus: biochemical assays: Protein A-agarose and nitrocellulose binding of B2EC-AP; inhibition assays (FIGS. 6-7). As to the method: Protein A-agarose based assay. 10 μl of Protein A-agarose were incubated in Eppendorf tubes with 50 μl of indicated amount of B4EC-FC diluted in binding buffer BB (20 mM Tris-HCl, 0.15 M NaCl, 0.1% BSA pH 8). After incubation for 30 min on shaking platform, Protein AAagarose beads were washed twice with 1.4 ml of BB, followed by application of 50 μl of B2ECAP reagent at the final concentration of 50 nM. Binding was performed for 30 min on shaking platform, and then tubes were centrifuged and washed once with 1.4 ml of BB. Colorimetric reaction of precipitated AP was measured after application of PNPP (FIG. 6).
Nitrocellulose based assay. B4EC-FC was serially diluted in 20 mM Tris-HCl, 0.15 M NaCl, 50 μg/ml BSA, pH 8. 2 μl of each fraction were applied onto nitrocellulose strip and spots were dried out for 3 min. Nitrocellulose strip was blocked with 5% non-fat milk for 30 min, followed by incubation with 5 nM B2EC-AP reagent. After 45 min incubation for binding, nitrocellulose was washed twice with 20 mM Tris-HCl, 0.15 M NaCl, 50 μg/ml BSA, pH 8 and color was developed by application of alkaline phosphatase substrate Sigma Fast (Sigma).

Experiment [6] deals with T6, B4ECv3 (soluble EphB4 extracellular domain with C-terminal V5 epitope tag and 6xHis tag) (human, UniProt P54760 16-537).
T6 construct: also called EphB4ECv3; GCF2 (v.3)
T6 sequence: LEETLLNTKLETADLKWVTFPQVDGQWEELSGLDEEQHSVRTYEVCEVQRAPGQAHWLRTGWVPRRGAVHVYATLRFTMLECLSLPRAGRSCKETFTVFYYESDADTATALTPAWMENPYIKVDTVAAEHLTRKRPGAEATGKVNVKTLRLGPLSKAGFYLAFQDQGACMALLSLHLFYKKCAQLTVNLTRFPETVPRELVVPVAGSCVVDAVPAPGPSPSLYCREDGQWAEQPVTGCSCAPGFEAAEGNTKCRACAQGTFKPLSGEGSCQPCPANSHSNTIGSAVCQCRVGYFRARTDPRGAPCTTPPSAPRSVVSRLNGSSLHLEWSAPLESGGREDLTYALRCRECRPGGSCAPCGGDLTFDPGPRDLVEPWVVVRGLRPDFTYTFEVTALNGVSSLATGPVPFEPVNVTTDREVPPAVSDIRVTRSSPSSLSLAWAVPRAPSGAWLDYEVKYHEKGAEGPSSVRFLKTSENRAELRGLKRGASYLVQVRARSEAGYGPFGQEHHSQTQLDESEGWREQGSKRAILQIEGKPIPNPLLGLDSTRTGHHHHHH
The experiment can be described thus: biochemical assays: Ni-NTA bead binding of B2-AP; inhibition in solution and cell based. As to the method: 10 μl of Ni-NTA-Agarose were incubated in microcentrifuge tubes with 50 μl of indicated amount of B4ECv3 diluted in binding buffer BB (20 mM Tris-HCl, 0.15 M NaCl, 0.1% bovine serum albumin pH 8) After incubation for 30 min on shaking platform, Ni-NTA beads were washed twice with 1.4 ml of BB, followed by application of 50 μl of B2-AP in the final concentration of 50 nM. Binding was performed for 30 min on shaking platform, and then tubes were centrifuged and washed one time with 1.4 ml of BB. Amount of precipitated AP was measured colorimetrically after application of PNPP.
Inhibition in solution. Different amounts of B4ECv3 diluted in 50 μl of BB were pre-incubated with 50 μl of 5 nM B2EC-AP reagent (protein fusion of Ephrin B2 ectodomain with placental alkaline phosphatase). After incubation for 1 h, unbound B2EC-AP was precipitated with 5,000 HEK293 cells expressing membrane-associated full-length EphB4 for 20 min. Binding reaction was stopped by dilution with 1.2 ml of BB, followed by centrifugation for 10 min. Supernatants were discarded and alkaline phosphatase activities associated with collected cells were measured by adding para-nitrophenyl phosphate (PNPP) substrate.
Cell based inhibition. B4ECv3 was serially diluted in 20 mM Tris-HCl, 0.15 M NaCl, 0.1% BSA, pH 8 and mixed with 5,000 HEK293 cells expressing membrane-associated full-length Ephrin B2. […]

For experiment [7], the target named is T7, Mouse EphB4/Fc (R&D Systems) (mouse, UniProt P54761 16-539, limits assumed).
T7 construct: Bought reagent; also called EphB4/Fc fusion protein; not shown: Fc part, detected with anti-human Fc/IgG-FITC
T7 sequence (looked up): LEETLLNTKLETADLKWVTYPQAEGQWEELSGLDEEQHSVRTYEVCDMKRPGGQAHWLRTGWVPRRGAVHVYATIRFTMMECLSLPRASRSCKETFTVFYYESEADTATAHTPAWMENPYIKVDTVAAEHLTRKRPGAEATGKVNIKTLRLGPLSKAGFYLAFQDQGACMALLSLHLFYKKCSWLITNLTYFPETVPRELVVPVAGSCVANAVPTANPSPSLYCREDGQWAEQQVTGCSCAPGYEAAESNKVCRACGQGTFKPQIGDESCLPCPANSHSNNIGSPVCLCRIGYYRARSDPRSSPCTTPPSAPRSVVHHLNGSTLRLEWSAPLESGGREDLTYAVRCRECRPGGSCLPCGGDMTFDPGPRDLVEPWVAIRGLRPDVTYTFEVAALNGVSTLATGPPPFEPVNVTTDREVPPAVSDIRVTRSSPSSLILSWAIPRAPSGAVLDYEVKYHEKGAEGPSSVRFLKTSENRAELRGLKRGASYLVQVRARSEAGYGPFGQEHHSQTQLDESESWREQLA
Kind of experiment: immunofluorescence on frozen KS biopsy sections, 5 ug/ml EphB4/Fc. As for the experimental part:
Immunofluorescence detection of EphrinB2 with EPHB4-Fc was done as follows. Frozen sections fixed in 4% paraformaldehyde and blocked with 20% FBS were incubated with 5 μg/ml EphB4/Fc (R&D Systems) for 1 h at RT. Sections were then incubated with 10 μg/ml rabbit anti-human IgG-FITC in PBS (Jackson ImmunoResearch Laboratories West Grove, Pa.) at RT for 1 hour. Nuclei were counterstained with DAPI and sections mounted as above. Human Fc (Jackson ImmunoResearch) was used as the negative control.

B1: Ephrin B2-alkaline phosphatase (Ephrin B2-AP) fusion protein: Ephrin B2 ectodomain fused with placental alkaline phosphatase (ligand, human, UniProt P52799 28-229, looked up)
chain: IVLEPIYWNSSNSKFLPGQGLVLYPQIGDKLDIICPKVDSKTVGQYEYYKVYMVDKDQADRCTIKKENTPLLNCAKPDQDIKFTIKFQEFSPNLWGLEFQKNKDYYIISTSNGSLEGLDNQEGGVCQTRAMKILMKVGQDASSAGSTRNKDPTRRPELEAGTNGRSSTTSPFVKPNPGSSTDGNSAGHSGNNILGSEVALFA
notes: extracellular domain; Secreted reagent; also called B2EC-AP; B2ECAP; not shown: placental alkaline phosphatase of vector pAPTag2 (GenHunter)
As for B1, the binding result in experiment [1] is on record as “binds”; in experiment [2] it was “binds”; in experiment [3], “no binding (tested: 50 nM B2-AP; 10-500 ng B4-ECD protein)”; in experiment [4], “binds”; in experiment [5], “binds”; in experiment [6], “binds”.

B2: ephrin B2 on tumor cells of human Kaposi's sarcoma biopsy sections (ligand, UniProt P52799 28-333, looked up)
chain: IVLEPIYWNSSNSKFLPGQGLVLYPQIGDKLDIICPKVDSKTVGQYEYYKVYMVDKDQADRCTIKKENTPLLNCAKPDQDIKFTIKFQEFSPNLWGLEFQKNKDYYIISTSNGSLEGLDNQEGGVCQTRAMKILMKVGQDASSAGSTRNKDPTRRPELEAGTNGRSSTTSPFVKPNPGSSTDGNSAGHSGNNILGSEVALFAGIASGCIIFIVIIITLVVLLLKYRRRHRKHSPQHTTTLSLSTLATPKRSGNNNGSEPSDIIIPLRTADSVFCPHYEKVSGDYGHPVYIVQEMPPQSPANIYYKV
notes: whole, on cells
Regarding B2, the binding result in experiment [7] is recorded as “binds”.

These data come from patent US20090155251A1 (published 2009).
